Experimental data reported in patent publication US7629169B2, “Methods for the production of platelet-derived growth factor-responsive neural precursor cells” (Stem Cell Therapeutics Corp., priority 2004, dated 2009).

Tests used:
[1] = test system: PDGF-responsive neural precursors (PRPs) from dissociated E14 MGE/LGE; test: Primary neurosphere generation from dissociated E14 ganglionic eminences; type: cell-based, mouse; settings: for neurosphere size / number of neurospheres produced: neurotrophin in the presence of PDGF
Method: Cell culture. The culture medium (MHM) was composed of DMEM/F-12 (1:1) including HEPES buffer (5 mM), glucose (0.6%), sodium bicarbonate (3 mM), glutamine (2 mM), insulin (25 μg/ml), transferrin (100 μg/ml), progesterone (20 nM), putrescine (10 μM), and sodium selenite (30 nM; all from Sigma, St. Louis, Mo., except glutamine from Invitrogen, Carlsbad, Calif.). The lateral, medial, or both ganglionic eminences (LGE, MGE or both) were removed from Embryonic Day 14 (E14) mouse embryos and mechanically dissociated with a fire-polished Pasteur pipette in MHM. Cells were plated at a density of […] unless otherwise indicated.
For neurosphere generation, PDGF-AA (100 ng/ml; Peprotech, Rocky Hill, N.J.), PDGF-BB (100 ng/ml; Peprotech), EGF (20 ng/ml; Peprotech), FGF2 (20 ng/ml; R&D [Minneapolis, Minn.])+heparan sulfate (2 μg/ml; HS; R&D), SHH (2 ug/ml; R&D), cyclopamine (5 μM; Toronto Research Chemicals, North York, Ontario), and/or DMSO (0.1%; carrier) was added to the MHM. MHM used to generate neurospheres also contained 2% B27 (Invitrogen).
[…] is one of the earliest markers of OLPs, and signaling by PDGF-AA is required for the generation of most oligodendrocytes (Fruttiger et al., Development 126:457 (1999)). Increasing concentrations of PDGF-AA were used to determine whether stimulation of dissociated E14 medial and lateral ganglionic eminences. (MGE and LGE, respectively) results in generation of neurospheres. The neurosphere assay was used because manipulation of primary cells is minimal compared to the immunopanning procedures used to isolate O-2A progenitors.
The effect of brain-derived neurotrophic factor (BDNF), neurotrophin-3 (NT-3), and nerve growth factor (NGF) on PRPs was determined. Cells were cultured as previously reported (Chojnacki et al., J Neurosci 24(48):10888 2004) in the presence of various combinations of PDGF, brain-derived neurotrophic factor (BDNF), NT-3, nerve growth factor (NGF), and the effects on neurosphere generation characterized. MHM is the defined medium used in cultures without growth factor.

[2] = test system: PDGFRα-labeled cells (PRPs); test: PDGFRα and Tunel staining of dissociated primary cells, 24 hours; type: cell-based
Method: Dissociated primary cells were cultured in 24-well plates with or without NT-3 for 24 hours, stained for PDGFRα and Tunel, and the number of labeled cells counted.

[3] = test system: PDGF-generated neurospheres; test: Differentiation of primary PDGF-AA-generated neurospheres, immunocytochemistry; type: cell-based, mouse

Molecule	generation of neurospheres by timing of treatment ([1]; initial 24 hour NT-3 vs exposure after first 24 hours)	neurosphere size [1]	number of neurospheres produced [1]	Tunel and PDGFRα co-labeled cells ([2]; with or without NT-3, 24 hours)	PDGFRα-labeled cells ([2]; with vs without NT-3, 24 hours)	GFAP-immunoreactive cells (astrocytes) ([3]; 2 DIV differentiation)	OLIG2 / O4 expression ([3]; 6 DIV PDGF-generated neurospheres differentiated 2 DIV)
NT-3: neurotrophin-3 (protein, UniProt P20783 139-257, looked up) Neurotrophin-3: YAEHKSHRGEYSVCDSESLWVTDKSSAIDIRGHQVTVLGEIKTGNSPVKQYFYETRCKEARPVKNGCRGIDDKHWNSQCKTSQTYVRALTSENNKLVGWRWIRIDTSCVCALSRKIGRT	more effective at promoting the generation of neurospheres than continued exposure to NT-3 after the first 24 hours	promote the generation of larger neurospheres	more neurospheres are produced	no Tunel and PDGFRα co-labeled cells were observed	more PDGFRα-labeled cells		
BDNF: brain-derived neurotrophic factor (protein, UniProt P23560 19-247, looked up) Neurotrophic factor BDNF …: APMKEANIRGQGGLAYPGVRTHGTLESVNGPKAGSRGLTSLADTFEHVIEELLDEDQKVRPNEENNKDADLYTSRVMLSSQVPLEPPLLFLLEEYKNYLDAANMSMRVRRHSDPARRGELSVCDSISEWVTAADKKTAVDMSGGTVTVLEKVPVSKGQLKQYFYETKCNPMGYTKEGCRGIDKRHWNSQCRTTQSYVRALTMDSKKRIGWRFIRIDTSCVCTLTIKRGR		promote the generation of larger neurospheres	more neurospheres are produced				
CNTF: ciliary neurotrophic factor (protein, UniProt P26441 1-200, looked up) Ciliary neurotrophic factor: MAFTEHSPLTPHRRDLCSRSIWLARKIRSDLTALTESYVKHQGLNKNINLDSADGMPVASTDQWSELTEAERLQENLQAYRTFHVLLARLLEDQQVHFTPTEGDFHQAIHTLLLQVAAFAYQIEELMILLEYKIPRNEADGMPINVGDGGLFEKKLWGLKVLQELSQWTVRSIHDLRFISSHQTGIPARGSHYIANNKKM						did not induce GFAP expression	no effect on OLIG2 or O4 expression
